Source: the supplement of paper PMC10567573

B1: DYRK1B (parent)
chain: RFQDLVLRMLEYEPAARISPLGAL
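Further: lentivirally expressed fusions sorted by FACS into six bins by GFP to DsRed ratio, PSI derived from sequencing read proportions per bin multiplied by bin number.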

Variants of: B1
Test: protein stability index of a GFP-peptide fusion (GPS, HEK-293T) (PSI 1-6); higher = more stable
Details: c terminus: a fixed tail appended
Variant RFQDLVLRMLEYWPAARISPLGAL [E13W] has a protein stability index of 3.37. Variant RFQDLVLRMLEYDPAARISPLGAL [E13D] has a protein stability index of 3.04. In the case of RFQDLVLRMLEYFPAARISPLGAL [E13F], the protein stability index is reported as 2.32. For RFQDLVLRMLEYYPAARISPLGAL [E13Y], the protein stability index was 3.29. RFQDLVLRMLEYHPAARISPLGAL [E13H] showed a protein stability index of 1.76. RFQDLVLRMLEYAPAARISPLGAL [E13A] showed a protein stability index of 2.87. With RFQDLVLRMLEYPPAARISPLGAL [E13P] the protein stability index was 3.05. Work on RFQDLVLRMLEYQPAARISPLGAL [E13Q] yielded a protein stability index of 3.79. Variant RFQDLVLRMLEYGPAARISPLGAL [E13G] has a protein stability index of 1.82. RFQDLVLRMLEYTPAARISPLGAL [E13T] gave a protein stability index of 4.09. RFQDLVLRMLEYSPAARISPLGAL [E13S] gave a protein stability index of 2.48. Work on RFQDLVLRMLEYRPAARISPLGAL [E13R] yielded a protein stability index of 1.34. With RFQDLVLRMLEYLPAARISPLGAL [E13L] the protein stability index was 2.27. For RFQDLVLRMLEYNPAARISPLGAL [E13N], the protein stability index was 2.11. RFQDLVLRMLEYEPAARQSPLGAL [I18Q] showed a protein stability index of 2.04. With RFQDLVLRMLEYEPAARGSPLGAL [I18G] the protein stability index was 1.27. RFQDLVLRMLEYEPAARHSPLGAL [I18H] gave a protein stability index of 1.23. Variant RFQDLVLRMLEYEPAARRSPLGAL [I18R] has a protein stability index of 1.15. Work on RFQDLVLRMLEYEPAARASPLGAL [I18A] yielded a protein stability index of 1.41. RFQDLVLRMLEYEPAARSSPLGAL [I18S] gave a protein stability index of 2.1. Work on RFQDLVLRMLEYEPAARLSPLGAL [I18L] yielded a protein stability index of 2.33. In the case of RFQDLVLRMLEYEPAARESPLGAL [I18E], the protein stability index is reported as 2.06. RFQDLVLRMLEYEPAARTSPLGAL [I18T] gave a protein stability index of 1.3. For RFQDLVLRMLEYEPAARMSPLGAL [I18M], the protein stability index was 2.17. Work on RFQDLVLRMLEYEPAARPSPLGAL [I18P] yielded a protein stability index of 1.98. With RFQDLVLRMLEYEPAARDSPLGAL [I18D] the protein stability index was 1.65. Work on RFQDLVLRMLEYEPAARFSPLGAL [I18F] yielded a protein stability index of 2.3. With RFQDLVLRMLEYEPAARNSPLGAL [I18N] the protein stability index was 1.23. Work on RFQDLVLRMLEYEPAARISPLGAF [L24F] yielded a protein stability index of 1.95. For RFQDLVLRMLEYEPAARISPLGAP [L24P], the protein stability index was 1.6. With RFQDLVLRMLEYEPAARISPLGAA [L24A] the protein stability index was 2.93. In the case of RFQDLVLRMLEYEPAARISPLGAC [L24C], the protein stability index is reported as 2.82. In the case of RFQDLVLRMLEYEPAARISPLGAD [L24D], the protein stability index is reported as 2.29. Variant RFQDLVLRMLEYEPAARISPLGAE [L24E] has a protein stability index of 2.36. In the case of RFQDLVLRMLEYEPAARISPLGAN [L24N], the protein stability index is reported as 1.82. Variant RFQDLVLRMLEYEPAARISPLGAI [L24I] has a protein stability index of 4.35. Work on RFQDLVLRMLEYEPAARISPLGAG [L24G] yielded a protein stability index of 1.35. With RFQDLVLRMLEYEPAARISPLGAK [L24K] the protein stability index was 1.31. RFQDLVLRMLEYEPAARISPLGAH [L24H] showed a protein stability index of 2.36. RFQDLVLRMLEYEPAASISPLGAL [R17S] showed a protein stability index of 2.69. RFQDLVLRMLEYEPAACISPLGAL [R17C] gave a protein stability index of 2.25. RFQDLVLRMLEYEPAAGISPLGAL [R17G] showed a protein stability index of 2.29. Variant RFQDLVLRMLEYEPAAMISPLGAL [R17M] has a protein stability index of 4.29. RFQDLVLRMLEYEPAAYISPLGAL [R17Y] gave a protein stability index of 3.04. Variant RFQDLVLRMLEYEPAAFISPLGAL [R17F] has a protein stability index of 1.77. Work on RFQDLVLRMLEYEPAADISPLGAL [R17D] yielded a protein stability index of 1.91. Work on RFQDLVLRMLEYEPAATISPLGAL [R17T] yielded a protein stability index of 1. RFQDLVLRMLEYEPAANISPLGAL [R17N] showed a protein stability index of 1.46. In the case of RFQDLVLRMLEYEPAAIISPLGAL [R17I], the protein stability index is reported as 4.01. RFQDLVLRMLEYEPAAPISPLGAL [R17P] showed a protein stability index of 2.75. Work on RFQDLVLRMLEYEPACRISPLGAL [A16C] yielded a protein stability index of 3.04. RFQDLVLRMLEYEPAKRISPLGAL [A16K] showed a protein stability index of 2.35. For RFQDLVLRMLEYEPAERISPLGAL [A16E], the protein stability index was 1.36. Work on RFQDLVLRMLEYEPAPRISPLGAL [A16P] yielded a protein stability index of 1.44. Work on RFQDLVLRMLEYEPAMRISPLGAL [A16M] yielded a protein stability index of 1.85. Work on RFQDLVLRMLEYEPATRISPLGAL [A16T] yielded a protein stability index of 2.28. With RFQDLVLRMLEYEPAFRISPLGAL [A16F] the protein stability index was 1.02. With RFQDLVLRMLEYEPANRISPLGAL [A16N] the protein stability index was 3.65. Work on RFQDLVLRMLEYEPAARISPLGTL [A23T] yielded a protein stability index of 2.04. With RFQDLVLRMLEYEPAARISPLGRL [A23R] the protein stability index was 2.45. RFQDLVLRMLEYEPAARISPLGGL [A23G] gave a protein stability index of 2.75. In the case of RFQDLVLRMLEYEPAARISPLGYL [A23Y], the protein stability index is reported as 2.71. RFQDLVLRMLEYEPAARISPLGHL [A23H] gave a protein stability index of 2.52. In the case of RFQDLVLRMLEYEPAARISPLGKL [A23K], the protein stability index is reported as 1.29. RFQDLVLRMLEYEPAARISPLGQL [A23Q] gave a protein stability index of 2.06. RFQDLVLRMLEYEPAARISPLGFL [A23F] showed a protein stability index of 1.59. Variant RFQDLVLRMLEYEPAARISPLGML [A23M] has a protein stability index of 2.25. With RFQDLVLRMLEYEPAARISPLGDL [A23D] the protein stability index was 1.42. Work on RFQDLVLCMLEYEPAARISPLGAL [R8C] yielded a protein stability index of 2.22. For RFQDLVLAMLEYEPAARISPLGAL [R8A], the protein stability index was 4.01. Variant RFQDLVLIMLEYEPAARISPLGAL [R8I] has a protein stability index of 2.21. Work on RFQDLVLGMLEYEPAARISPLGAL [R8G] yielded a protein stability index of 1.33. RFQDLVLMMLEYEPAARISPLGAL [R8M] showed a protein stability index of 3.14. In the case of RFQDLVLHMLEYEPAARISPLGAL [R8H], the protein stability index is reported as 1.85. Variant RFQDLVLLMLEYEPAARISPLGAL [R8L] has a protein stability index of 1.89. RFQDLVLPMLEYEPAARISPLGAL [R8P] showed a protein stability index of 2.23. RFQDLVLEMLEYEPAARISPLGAL [R8E] showed a protein stability index of 2.06. In the case of RFQDLVLDMLEYEPAARISPLGAL [R8D], the protein stability index is reported as 1.31. In the case of RFQDLVLRMLEYEPAARIEPLGAL [S19E], the protein stability index is reported as 3.96. For RFQDLVLRMLEYEPAARIYPLGAL [S19Y], the protein stability index was 3.82. RFQDLVLRMLEYEPAARIRPLGAL [S19R] showed a protein stability index of 2.38. In the case of RFQDLVLRMLEYEPAARIDPLGAL [S19D], the protein stability index is reported as 1.76. For RFQDLVLRMLEYEPAARIAPLGAL [S19A], the protein stability index was 1.17. In the case of RFQDLVLRMLEYEPAARILPLGAL [S19L], the protein stability index is reported as 4.05. RFQDLVLRMLEYEPAARIVPLGAL [S19V] gave a protein stability index of 2.91. With RFQDLVLRMLEYEPAARIQPLGAL [S19Q] the protein stability index was 1.55. With RFQDLVLRMLEYEPAARIKPLGAL [S19K] the protein stability index was 3.06. RFQDLVLRMLEYEPAARIGPLGAL [S19G] showed a protein stability index of 1.07. For RFQDLVLRMLEYEPAARIPPLGAL [S19P], the protein stability index was 2.61. With RFQDLVLRMLEYEEAARISPLGAL [P14E] the protein stability index was 2.21. Work on RFQDLVLRMLEYEIAARISPLGAL [P14I] yielded a protein stability index of 1.72. With RFQDLVLRMLEYEFAARISPLGAL [P14F] the protein stability index was 2.87. For RFQDLVLRMLEYELAARISPLGAL [P14L], the protein stability index was 5.01. RFQDLVLRMLEYENAARISPLGAL [P14N] showed a protein stability index of 1.45.
